From patent publication US20210260173A1

Target: IgG-type of BCR (membrane-bound IgG) on Nu-DUL-1 cells
Assay: cell-based or functional assay

Immunoglobulin G-degrading enzyme of S. pyogenes (IdeS)
loss of anti-Fab signal on Nu-DUL-1 cells (flow cytometry) after IdeS treatment: > 4 µg/mL | membrane bound IgG on Nu-DUL-1 cells one hour after IdeS treatment and wash (flow cytometry, anti-Fab): > 4 µg/mL
